Measurements as given in the Immune Epitope Database (IEDB).

How the values were obtained:
Assay in all cases: IEDB peptide-MHC binding, purified MHC/competitive/fluorescence; filed as Kd, often an IC50 or EC50 that approximates it; ≥ and ≤ were set here for values at or beyond the usual limits of such assays
[1] = molecular target: HLA-B*45:06; conditions: source organism: Escherichia coli F11
[2] = molecular target: HLA-B*40:13; conditions: source organism: Escherichia coli F11
[3] = molecular target: HLA-B*83:01; conditions: source organism: Escherichia coli F11
[4] = molecular target: HLA-B*15:42; conditions: source organism: Escherichia coli F11
[5] = molecular target: HLA-A*02:01; conditions: source organism: Escherichia coli F11
[6] = molecular target: HLA-A*11:01; conditions: source organism: Homo sapiens
[7] = molecular target: HLA-B*08:01; conditions: source organism: Homo sapiens
[8] = molecular target: HLA-A*26:03; conditions: source organism: Homo sapiens
[9] = molecular target: HLA-B*15:17; conditions: source organism: Homo sapiens
[10] = molecular target: HLA-B*15:09; conditions: source organism: Homo sapiens
[11] = molecular target: HLA-B*08:03; conditions: source organism: Homo sapiens
[12] = molecular target: HLA-A*68:02; conditions: source organism: Homo sapiens
[13] = molecular target: HLA-A*26:02; conditions: source organism: Homo sapiens

Kd [1] | Kd [2] | Kd [3] | Kd [4] | Kd [5] | Kd [6] | Kd [7] | Kd [8] | Kd [9] | Kd [10] | Kd [11] | Kd [12] | Kd [13] | Sequence
≥ 5 µM | 0.458 µM | ≥ 5 µM | ≥ 5 µM | ≤ 0.0001 µM |  |  |  |  |  |  |  |  | GLIPQWVTL
 |  |  |  |  | ≥ 20 µM | ≥ 20 µM | ≥ 20 µM | ≥ 20 µM | ≥ 20 µM | ≥ 20 µM | 3.22 µM | 0.531 µM | TYSPALNKM
